Experimental data as given in patent US6982082 (Harvard, dated 2006).

Legend:
[1] = target: CypA wild type with N-terminal FLAG epitope tag, expressed from pBJ5 in Jurkat cells (UniProt P62937 1-165); assay: cell-based or functional assay
[2] = target: CypAgtm (S99T, F113G, C115M) with N-terminal FLAG epitope tag, expressed from pBJ5 in Jurkat cells (UniProt P62937 1-165); assay: cell-based or functional assay
Chain of CypAgtm (S99T, F113G, C115M) with N-terminal FLAG epitope tag, expressed from pBJ5 in Jurkat cells (P62937 whole entry S99T/F113G/C115M): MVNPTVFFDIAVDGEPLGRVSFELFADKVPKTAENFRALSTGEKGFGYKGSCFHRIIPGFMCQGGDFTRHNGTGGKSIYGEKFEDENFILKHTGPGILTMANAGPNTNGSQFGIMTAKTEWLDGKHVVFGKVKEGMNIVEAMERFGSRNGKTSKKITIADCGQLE

Chain of CypA wild type with N-terminal FLAG epitope tag, expressed from pBJ5 in Jurkat cells (P62937 whole entry): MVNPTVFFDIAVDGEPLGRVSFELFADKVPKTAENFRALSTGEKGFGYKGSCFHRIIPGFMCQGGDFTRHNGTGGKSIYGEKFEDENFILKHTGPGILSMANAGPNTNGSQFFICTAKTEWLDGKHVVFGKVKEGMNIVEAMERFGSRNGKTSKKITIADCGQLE

- IC50 in Cellular NFAT-Signalling [1]: > 400 nM
- IC50 in Cellular NFAT-Signalling [2]: 25 nM
B1: alpha-cyclopentyl, sarcosine11-CsA (CpSar11-CsA) (peptide)
peptide: XXXXXVXAXXX
modifications: head-to-tail cyclic undecapeptide made by cyclising linear peptide 11; residues as printed: CpSar (L-alpha-cyclopentylsarcosine, position 11 of CsA)-MeBmt-Abu-Sar-MeLeu-Val-MeLeu-Ala-D-Ala-MeLeu-MeLeu (N-methylated residues, D-Ala, Abu, MeBmt)
